Source: the nanobody polyreactivity screen of Harvey et al. (2022)

Test: yeast display, Sf9 membrane polyspecificity reagent, FACS + sequencing; frameworks hold sequencing errors
Outline: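 Nanobodies came from a synthetic yeast display library in Saccharomyces cerevisiae BJ5465, induced with galactose for 36–48 hours and stained for 1 hour at 4 °C with 10% biotinylated, detergent-solubilized Sf9 membrane reagent. Cells were enriched on streptavidin microbeads and then FACS-sorted, with low and high (top ~1%) gates set on anti-HA fluorescence for expression and streptavidin fluorescence for reagent binding. Each polyreactivity label reflects the gate a clone came from. Genes were amplified by colony PCR, sequenced by MiSeq 2 × 250 and filtered by CDR length.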

Sequence	polyreactivity (PSR sort gate)
QVQLVESGGGLVQAGGSLRLSCAASGLIFRKNAMGWYRQAPGKEMELVAAISSSDSSTYADSVKGRCTISRDNAKNTVYLQMNSLKPEDTAVYYCAAASYNWLDWVTREYWGQGTQVTVSS	low polyreactivity
QVQLVESGGGLVQAGGSLRLSFAASGRTFLVYAMGWYRQAPGKERELVAGITSGGGTYYADSVKGRFTISRDNAKNTVYLQMNSLKPEDTAVYYCAKYRWYGVYWGQGTQVTVSS	low polyreactivity
QVQLVESGGGLVQAGGSLRLSCAASGRTIKSNDMGWYRQAPGKERELVSAISRRGGSTYYADSVKGRFTISRDNAKNTVYLQMNSLKPEDTAVYYCAADLTFSYRQSAGRYSTYGYWGQGTQVTVSS	high polyreactivity
QVQLVESGGGLVQAGGSLRLSCAASGLTFTTYAMGWYRQAPWKERELVAAISRSGGRTYYADSVKGRFTISRDNAKNTVYLHMNSLKPEDTAVYYCNVKGHVLEYYWGQGTQVTVSS	high polyreactivity
QVQLVESGGGLVQAGGSLRLSCAASGIIFRYYAMGWYRQPPGKERELVASISRGGSTYYADSVKGRFTISRDNAKNTVYLQMNSLKPEDTAVYYCAADVYPVYLYGYEYWGQGTQVTVSS	high polyreactivity
QVQLVESGGGLVQAGGSLRLSCAASGYTFPRYTMGWYRQAPGKERELVAAINWSGGSTYYADSVKGRFTISRDNAKNTVYLQMNSLKPEDTAVYYCNKAYVSRYDYWGQGTQVTVSS	high polyreactivity
QVQLVESCGGLVQAGGSLRLSCAASGSTFGYYAMGWYRQAPGKETELVAAISSRGGSTYYADSVKGRFTISRDNAKNTVYLQMNSLKPEDTADYYCAARGLFFRNRYGYWGQGTQVTVSS	high polyreactivity
QVQLVESGGGLVQAGGSLRLSCAASGSTFASYVMGGYSQAPGKERELVAGIDVRGVSTYYADSVKGRFTISRDNAKNTVYLQMNSLKPEDTAVYYCAIDNRYEMDYWGQGTQVTVSS	low polyreactivity
QVQLVESGGGLVQAGGSLRLSCAASGSTFRTNTMGWYRQAPGKERELVADISWSGGSTYYADSVKGRFTISRDNAKNTVYLQMNSLKPEDTAVYYCAKDGAYWTYFSWYDYWGQGTQVTVSS	low polyreactivity
QVQLVESRGGLVQAGGSLRVSCAASGRTFGVNAMGWYRQAPGKERELVAAISTSGGSTYYADSVKGRFTISRDNAKNTVYLQMNSLIPEDTAVYYCNTGRGRYVHGRDYDYWGQGTQVTVSS	low polyreactivity
QVQLVESGGGLVQAGGSLRLSCAASGLNFRAYAMGWYRQAPGKERELVAAITWNGGSTNYADSVKGRFTISRDNAKNTVYLQMNSLKPEDTAVYYCNKYRISGLSKFYYWGQGTQVTVSS	high polyreactivity
QVQLVESGGGLVQAGRSLRLSCAASGSTLQDNAMGWYRQAPGKERELVAAITLNGGSTYYADSVKRRFTISRDHAKNTVYLPMNSLKPEDTAVYYCAAEYLYVGYWFDYWGQGTQVTVSS	high polyreactivity
QVQLVESGGGLVQAGGSLRLSCAASGRIFVDNTMGWYRQAPGKERELVAVITSGGSTNYADSVKGRFTISRDNAKNTVYLQMNSLKPEDTAVYYCATEPGGYRFDDRPFQYGYWGQGTQVTVSS	low polyreactivity
QVQLVESGGGLVQAGGSLRLSCAASGSIFCYYAMGWYRQAPGKERELVATITSGGSTSYADSVKGRFTISRDNAKNTVYLQMNSLKPEDTAVYYCAAARLFTTYDWGQGTQVTVSS	low polyreactivity
QVQLVESGGGLVQAGGSLRLSCAASGSIFFIYAMGWYRQAPGKERELVATITSGGSTYYADSVNGRFTISRDNAKNTVYLQMNSLKPEDTAVYYCAVDEYFAFDYWGQGTQVTVSS	low polyreactivity
QVQLEESGGGLVQAGGSLRLTCAGSGSIFYVYPMGWYRPAPGKERELVAAIYSGASTYYADSVKGRFTISRDNAKNTVYLQKNSLKPEDTAVYYCAAYVFFQTYFSYYVEGDFWGQGTQVTVSS	low polyreactivity
QVQLVESGGGLVQAGGSLRLSCAASGFTFNYYAMGLYRQAPGKERELVARITSGGSTYYADSVKGRFTISRDNAKNTVYLQMNSLKPEDTAVYYCNVDVSVEVAYWGQGTQVTVSS	low polyreactivity
HVQLVESAGGLVQAGGSLRLSCAASGSTIYGYAMGLYRQAPGKERELVAAITGSGGSTYYADSVKGRFTISRDNAKNTVYLQMNSLKPEDTAVYYCNAVRRYGLEYNYWGQGTQVTVSS	high polyreactivity
QVQLVESGGGLVQAGGSLRLSCAASGNIFGAYAMGWYRQAPGKERELVARINSGAITNYADSVKGRFTISRDNAKNTVYLQMNSLKPEDTAVYYCNKDTYYAGSYLDYDYWGQGTQVTVSS	low polyreactivity
QVQLVESGGGLFQAGGSLRLICAASGRTFVVYAMGSYRQAPGKEWELVAAISWSGGRTYYADSVKGRFTMSRDNAKNTVYLQMNTLKPEDTAVYYCPAEVYLYKYVYYYWGQGTQVTVSS	high polyreactivity
QVQLVESGGGLVQAGGSLRLSCAASGFTFVSYAMGWYRQAPGKERELVATITSDGSTNYADSVKGRFTISRDNAKNTVYLQMNSLKPEDTAVYYCAADIHYYPGYLAYDYWGQGTQVTVSS	low polyreactivity
QVQLQESGGGLVQAGGSLRLSCAASGNIYEADIMGWYRQAPGKERELVTSITDGGSTNYADSVKGRFTISRDNAKNTVYLQMNSLKPEDTAVYYCAAIAYPDIPTSFDYNSDYSYWGQGTQVTVSS	low polyreactivity

Sequence	polyreactivity (PSR sort gate)
QVQLVESGGGLVQAGGSLRLSCAASGIIFGTNAMGWYRQAPGKERELVASITSDGSTYYADSVKGRFTISRDNAKNTVYLQMNSLKPEDTAVYYCAADHYWADGVYLYDTYEYGYWGQGTQVTVSS	low polyreactivity
QVQLVESGGGLVQAGGSLRLSCAASGLSSLRMLWDGIDRRLGKKGSWLPLITSGGDSTNYADSVKGRFTISRDNAKNTVYLQMNSLKPEDTAVYYCAADLDYPYGYWGQGTQVTVSS	low polyreactivity
QVQLVESGGGLVQAGGSLRLSCAASGRIFAYYAMGWYRQAPGKERELVAAISGGGGSTYYADSVKGRFTISRDNAKNTVYLQMNSLKPEDTAVYYCAARYTVYSATGRYYYWGQGTQVTVSS	high polyreactivity
QVQLVESGGGLVQAGGSLRLICAASGSTFPPNAMGWYRQAPGKERELVAAISKRGGSTTYSDSVKGRFTISRDYAKNTVYLQMNSLIPEDTAVYYCAARRSGRSHYEKMDYWGQGTQVSVSS	low polyreactivity
QVQLVESGGGLVQAGGSLRLSCAASGSTFGAYDMGWYRQAPGKERELVAVISSRDGSTYYADSVKGRFTISRDNAKNTVYLQMNSLKPEDTAVYYCAADYPVPYNGGDGSWGQGTQVTVSS	low polyreactivity
QVQIVESGGGLVQAGGSLRLSCPASGSTFSRYAMGWYRQAPGKERELVAAISWSGGRTYYADSVKGRFTISRDYATNTVYLLMNSLKPEDTAVYYCAARKLVVILREEYWVQGTQVTVSS	high polyreactivity
QAQLVESGGGLVQAGGSLRLSCAASGSIMYYAMGWYRHAPWKERELVATITRGGSTYYADSVKGRFTISRDNAKNTVYLQMNSLKPEDTAVYYCAKQFLPSGVYYEYDSWGQGTQVTVSS	low polyreactivity
QVQLEESGGGLVQAGGSLRLSCAASGSIFITYAMGWYRQAPGKERELVAAIRDSGDRTYYADSVKGRFTISRDTAKNTVYLQMNSLKPEDTGVYYCNARWQETLKYDYWGQGTLVTVSS	low polyreactivity
QVQLQESGGGLVQAGGSPRLSCAASGTITRQYYMGWYRQAPGKERGFVAGIKSGSTTYYADNVKGCFTISRDNAKNAAYLQMNSLKPEDTAVYYCAIRPSYTIPYWYWGQGTQVTVSS	high polyreactivity
QVQLVESGGGLVQAGGSLRLSWAASGITFRYYAMGWYRHAPGKERELVAAITSGGSTYYADSVKGRFTISRDNAKNTVYLQMNSLKPEDTAVYYCAAKYTLGVSRHPPVKKFYYWGQGTQVTVSS	high polyreactivity
QVQLVESGGGLVQAGGSLRLSCAASGSTFRRNVMGWSRQAPGKERELVAVISKSGGSTYYADSVKGRFTISRDNAENTVYLQMNSLKPEDTAVYYCAARYLKGYGYWGQGTQVTVSS	high polyreactivity
QVQLVESGGGLVQAGGSLRLSCAASGFIFVYNSMGWSRPAPGKEREFVASITWSGGRTYYADSVKGRFTISRDNAKNTVYLQMNSLKREVTAVYFCATKYPNSQVRRYDYWGQGTQVTVSS	low polyreactivity
QVQLVESAGGLVQAGGSLRLSFAASGSIFYSYAMGSYRKAAGKDRELVADITSSGGSTYYADSVKGRFTISRDNAKNTDYLQMNSLKREDTAVYYCAASSPAFYGLRYNYWGQGTQVTVSS	low polyreactivity
QVQLLESGGGLVQAGGSLRLSCAASGRTLVGYAMGWYRQAPGTERELVAAITGSGGRTYYADSVKGRFTISRDNAKNTVYLQMNSLKPEDTAVYYCNKVYRVSSGAYLYDYWGQGTQVTVSS	high polyreactivity
QVQLVESGGGLVQAGGSLRLSCAASGSTFVYNTMGWYRQAPGKERELVAAISKSGTNTLYADSVKGRFTISRDNAKNTVYLQMNSLKPEDTAVYYCAVRSVPRWFTELDYWGQGTQVTVSS	low polyreactivity
QVQLVESGGGLVQAGGSLRLSCAASVFIFAIYAMGWYRQAPGKERELVADINSDGSTYYADSVKGRFTISRDNAKNTVYLQMNSLKPEDTAVYYCNAETAGHDMDYWGQGTQVTVSS	low polyreactivity
QVQLVESGGGLVQAGGSLRLSCAASGFTFQYNAMGWYRQAPGKERELVAGISRSGANTYYADSVKGRFTISRDTAKNTVYLQMNSLKPEDTAVYYCNNLTSRVGPDEYDYWGQGTQVTVSS	high polyreactivity
QVHLVESGGGIVQAGGSLRLSCAASGSIFKKNAMGWSRQAPGKERELVAAITLSSSDTYYADSVKGRFTISRDNAKNTVYLQMNSLKPEDTAVYYCAAKRTRDMDYWGQGTQVTVSS	high polyreactivity
QVQLVESGGGLVQAGGSLRLSCAASGSIFYYNAMGWYRQAPGKERELVAAISWGDGITYYADSVKGRFTISRDNAKNTVYLQMNSLKPEDTAVYYCAVDYYYLAFEYWGQGTQVTVSS	high polyreactivity
QVQLVESGGGLVQAGGSLRLSCAASGRTFYLNAMGWYRPAPGKERELVAAITRTGGRTYYADSVKGRFTISRDNAKNTVYLQMNSLKPEDTAVYYCAADYVNYSYEYWGQGTQVTVSS	high polyreactivity
QVQLVESGGGLVQAGGSLRLSCAASGSTFSFYAMGWYRQAPGKERELVAAIRAGTRTYYADSVKGRFTISRDNAKNTVYLQMNSLKPEDTAVYYCAATRRRYPYYYWGQGTQVTVSS	high polyreactivity
